Experimental findings from PMC7438487, “Structural studies reveal flexible roof of active site responsible for ω-transaminase CrmG overcoming by-product inhibition” (Communications Biology, 2020) are described below.

The target of this assay is ω-transaminase CrmG from Actinoalloteichus cyanogriseus WH1-2216-6 (Actinoalloteichus cyanogriseus WH1-2216-6). The assay can be described thus: dynamic light scattering; apo CrmG at 4.8 mg/mL in 50 mM Tris buffer pH 7.5, 20 °C, DynaPro Titan.

The substance “ω-transaminase CrmG from Actinoalloteichus cyanogriseus WH1-2216-6 (enzyme)” registered a stoichiometry N of 2.

One may read the stoichiometry N as a count of units in the complex or per binding partner.
